Source: the supplement of paper PMC9112550, “Optimization of the antimicrobial peptide Bac7 by deep mutational scanning” (BMC Biology, 2022)

Test system: Escherichia coli TOP10
Assay: shrunken log2 fold change of peptide-encoding DNA abundance (4.5 h post-induction vs induction); higher = less antimicrobial activity (less host growth inhibition)
Settings: time post-induction: 4.5 h; library: site-saturation at positions 5, 18, 19, 20
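Further: peptides expressed intracellularly from a pBAD plasmid library in pooled LB shake-flask culture, induced with 0.3% L-arabinose, DNA abundance read by NGS, three biological replicates, DESeq2 with apeglm shrinkage.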

RRIRGRPPRLPRPRPRPKSGPRP
shrunken log2 fold change: 0.707

RRIRIRPPRLPRPRPRPPYQPRP
shrunken log2 fold change: 2.02

RRIRTRPPRLPRPRPRPVIIPRP
shrunken log2 fold change: -0.213

RRIRERPPRLPRPRPRPHFMPRP
shrunken log2 fold change: -0.221

RRIRARPPRLPRPRPRPPKMPRP
shrunken log2 fold change: 0.298

RRIRFRPPRLPRPRPRPAFMPRP
shrunken log2 fold change: -0.164

RRIRKRPPRLPRPRPRPEDRPRP
shrunken log2 fold change: 0.206

RRIRDRPPRLPRPRPRPADPPRP
shrunken log2 fold change: -0.155

RRIRIRPPRLPRPRPRPYCFPRP
shrunken log2 fold change: -0.834

RRIRQRPPRLPRPRPRPPVSPRP
shrunken log2 fold change: -0.203

RRIRSRPPRLPRPRPRPTVVPRP
shrunken log2 fold change: -0.112

RRIRNRPPRLPRPRPRPWISPRP
shrunken log2 fold change: -0.0184

RRIRHRPPRLPRPRPRPNPWPRP
shrunken log2 fold change: -0.248

RRIRARPPRLPRPRPRPNVKPRP
shrunken log2 fold change: -0.167

RRIRNRPPRLPRPRPRPTKAPRP
shrunken log2 fold change: -0.00132

RRIRERPPRLPRPRPRPTTIPRP
shrunken log2 fold change: -0.627

RRIRVRPPRLPRPRPRPVWEPRP
shrunken log2 fold change: 0.0761

RRIRWRPPRLPRPRPRPIYGPRP
shrunken log2 fold change: -0.0358

RRIRRRPPRLPRPRPRPWNTPRP
shrunken log2 fold change: -0.214

RRIRQRPPRLPRPRPRPLWIPRP
shrunken log2 fold change: -0.0179

RRIRPRPPRLPRPRPRPHSVPRP
shrunken log2 fold change: -0.213

RRIRERPPRLPRPRPRPAIIPRP
shrunken log2 fold change: -0.259

RRIRGRPPRLPRPRPRPMTPPRP
shrunken log2 fold change: 1.07

RRIRCRPPRLPRPRPRPMYLPRP
shrunken log2 fold change: -0.464

RRIRFRPPRLPRPRPRPLGLPRP
shrunken log2 fold change: -0.0983

RRIRMRPPRLPRPRPRPMEYPRP
shrunken log2 fold change: 0.0305

RRIRTRPPRLPRPRPRPQWVPRP
shrunken log2 fold change: 0.143

RRIRKRPPRLPRPRPRPQYIPRP
shrunken log2 fold change: 0.102

RRIRTRPPRLPRPRPRPGTSPRP
shrunken log2 fold change: -0.043

RRIRTRPPRLPRPRPRPCFDPRP
shrunken log2 fold change: -0.0899

RRIRCRPPRLPRPRPRPYCSPRP
shrunken log2 fold change: -0.502

RRIRFRPPRLPRPRPRPSNVPRP
shrunken log2 fold change: -0.989

RRIRVRPPRLPRPRPRPVSAPRP
shrunken log2 fold change: -0.141

RRIRDRPPRLPRPRPRPMATPRP
shrunken log2 fold change: 0.415

RRIRLRPPRLPRPRPRPMEVPRP
shrunken log2 fold change: -0.0152

RRIRRRPPRLPRPRPRPIDWPRP
shrunken log2 fold change: 0.122

RRIRTRPPRLPRPRPRPDELPRP
shrunken log2 fold change: -0.0838

RRIRGRPPRLPRPRPRPARRPRP
shrunken log2 fold change: 0.739

RRIRIRPPRLPRPRPRPTWFPRP
shrunken log2 fold change: 0.159

RRIRNRPPRLPRPRPRPNLSPRP
shrunken log2 fold change: -0.0459

RRIRPRPPRLPRPRPRPVEAPRP
shrunken log2 fold change: 0.481

RRIRCRPPRLPRPRPRPRCLPRP
shrunken log2 fold change: -0.32

RRIRQRPPRLPRPRPRPKRFPRP
shrunken log2 fold change: -0.0339

RRIRERPPRLPRPRPRPDDAPRP
shrunken log2 fold change: -0.179

RRIRYRPPRLPRPRPRPQLTPRP
shrunken log2 fold change: -0.0894

RRIRIRPPRLPRPRPRPKHRPRP
shrunken log2 fold change: -0.103

RRIRARPPRLPRPRPRPKSEPRP
shrunken log2 fold change: 1.22

RRIRPRPPRLPRPRPRPLYTPRP
shrunken log2 fold change: -0.37

RRIRTRPPRLPRPRPRPNICPRP
shrunken log2 fold change: 0.00449

RRIRVRPPRLPRPRPRPDQAPRP
shrunken log2 fold change: -0.038

RRIRVRPPRLPRPRPRPMIRPRP
shrunken log2 fold change: -0.147

RRIRQRPPRLPRPRPRPWHKPRP
shrunken log2 fold change: -0.334

RRIRYRPPRLPRPRPRPSCEPRP
shrunken log2 fold change: -0.586

RRIRFRPPRLPRPRPRPYCYPRP
shrunken log2 fold change: -0.749

RRIRQRPPRLPRPRPRPVGYPRP
shrunken log2 fold change: 0.101

RRIRPRPPRLPRPRPRPDVLPRP
shrunken log2 fold change: -0.709

RRIRLRPPRLPRPRPRPCFSPRP
shrunken log2 fold change: -0.112

RRIRIRPPRLPRPRPRPTYAPRP
shrunken log2 fold change: -0.612

RRIRVRPPRLPRPRPRPTEGPRP
shrunken log2 fold change: 0.0116

RRIRTRPPRLPRPRPRPHFQPRP
shrunken log2 fold change: -0.294

RRIRSRPPRLPRPRPRPITRPRP
shrunken log2 fold change: -0.221

RRIRWRPPRLPRPRPRPSHSPRP
shrunken log2 fold change: -0.0913

RRIRFRPPRLPRPRPRPYQTPRP
shrunken log2 fold change: -0.0618

RRIRQRPPRLPRPRPRPDQVPRP
shrunken log2 fold change: -0.00133

RRIRLRPPRLPRPRPRPLVTPRP
shrunken log2 fold change: 0.000277

RRIRCRPPRLPRPRPRPVQQPRP
shrunken log2 fold change: 0.148

RRIRDRPPRLPRPRPRPLHCPRP
shrunken log2 fold change: -0.145

RRIRKRPPRLPRPRPRPGEYPRP
shrunken log2 fold change: 0.156

RRIRERPPRLPRPRPRPGYRPRP
shrunken log2 fold change: -0.408

RRIRDRPPRLPRPRPRPAMIPRP
shrunken log2 fold change: -0.129

RRIRQRPPRLPRPRPRPQPIPRP
shrunken log2 fold change: 0.136

RRIRWRPPRLPRPRPRPKGQPRP
shrunken log2 fold change: -0.0148

RRIRPRPPRLPRPRPRPFKIPRP
shrunken log2 fold change: 0.0869

RRIRVRPPRLPRPRPRPPMMPRP
shrunken log2 fold change: -0.0474

RRIRPRPPRLPRPRPRPWKPPRP
shrunken log2 fold change: -0.149

RRIRGRPPRLPRPRPRPGGLPRP
shrunken log2 fold change: 0.842

RRIRRRPPRLPRPRPRPPICPRP
shrunken log2 fold change: 0.152

RRIRDRPPRLPRPRPRPHFQPRP
shrunken log2 fold change: -0.236

RRIRPRPPRLPRPRPRPHSAPRP
shrunken log2 fold change: 0.31

RRIRKRPPRLPRPRPRPRRCPRP
shrunken log2 fold change: 0.444

RRIRLRPPRLPRPRPRPRFVPRP
shrunken log2 fold change: 0.123

RRIRARPPRLPRPRPRPYVHPRP
shrunken log2 fold change: -0.728

RRIRTRPPRLPRPRPRPQRCPRP
shrunken log2 fold change: 0.00192

RRIRSRPPRLPRPRPRPQPQPRP
shrunken log2 fold change: 0.47

RRIRNRPPRLPRPRPRPHPIPRP
shrunken log2 fold change: 0.033

RRIRGRPPRLPRPRPRPFVDPRP
shrunken log2 fold change: 0.571

RRIRSRPPRLPRPRPRPKSRPRP
shrunken log2 fold change: -0.0201

RRIRMRPPRLPRPRPRPLVMPRP
shrunken log2 fold change: 0.0504

RRIRRRPPRLPRPRPRPTNEPRP
shrunken log2 fold change: 0.0166

RRIRSRPPRLPRPRPRPALYPRP
shrunken log2 fold change: -0.124

RRIRHRPPRLPRPRPRPHFQPRP
shrunken log2 fold change: 0.0598

RRIRERPPRLPRPRPRPDYRPRP
shrunken log2 fold change: -0.285

RRIRDRPPRLPRPRPRPETAPRP
shrunken log2 fold change: 1.15

RRIRNRPPRLPRPRPRPASCPRP
shrunken log2 fold change: -0.233

RRIRIRPPRLPRPRPRPENLPRP
shrunken log2 fold change: -0.0595

RRIRVRPPRLPRPRPRPNCLPRP
shrunken log2 fold change: -0.105

RRIRERPPRLPRPRPRPPGTPRP
shrunken log2 fold change: 0.152

RRIRARPPRLPRPRPRPDTQPRP
shrunken log2 fold change: 0.374

RRIRARPPRLPRPRPRPAINPRP
shrunken log2 fold change: -0.00878

RRIRKRPPRLPRPRPRPETRPRP
shrunken log2 fold change: 0.269

RRIRSRPPRLPRPRPRPNTPPRP
shrunken log2 fold change: -0.616

RRIRPRPPRLPRPRPRPTMFPRP
shrunken log2 fold change: -0.164

RRIRFRPPRLPRPRPRPNTDPRP
shrunken log2 fold change: -0.384

RRIRGRPPRLPRPRPRPKTEPRP
shrunken log2 fold change: 0.713

RRIRIRPPRLPRPRPRPVEYPRP
shrunken log2 fold change: -0.116

RRIRSRPPRLPRPRPRPFTYPRP
shrunken log2 fold change: -0.0179

RRIRGRPPRLPRPRPRPMFAPRP
shrunken log2 fold change: 1.57

RRIRFRPPRLPRPRPRPILRPRP
shrunken log2 fold change: -0.156

RRIRQRPPRLPRPRPRPQDPPRP
shrunken log2 fold change: -0.239

RRIRNRPPRLPRPRPRPHDAPRP
shrunken log2 fold change: -0.116

RRIRARPPRLPRPRPRPMQGPRP
shrunken log2 fold change: 0.601

RRIRPRPPRLPRPRPRPYTQPRP
shrunken log2 fold change: -0.608

RRIRARPPRLPRPRPRPGVVPRP
shrunken log2 fold change: 0.645

RRIRDRPPRLPRPRPRPVTKPRP
shrunken log2 fold change: -0.173

RRIRWRPPRLPRPRPRPAHYPRP
shrunken log2 fold change: -0.145

RRIRQRPPRLPRPRPRPAQHPRP
shrunken log2 fold change: 0.189

RRIRWRPPRLPRPRPRPAMWPRP
shrunken log2 fold change: 0.433

RRIRRRPPRLPRPRPRPATVPRP
shrunken log2 fold change: -0.037

RRIRSRPPRLPRPRPRPYYEPRP
shrunken log2 fold change: -0.628

RRIRLRPPRLPRPRPRPNMVPRP
shrunken log2 fold change: -0.126

RRIRLRPPRLPRPRPRPQAIPRP
shrunken log2 fold change: -0.152

RRIRRRPPRLPRPRPRPRFKPRP
shrunken log2 fold change: 0.0822

RRIRERPPRLPRPRPRPGTIPRP
shrunken log2 fold change: -0.386

RRIRHRPPRLPRPRPRPPVAPRP
shrunken log2 fold change: 0.0782

RRIRTRPPRLPRPRPRPSMEPRP
shrunken log2 fold change: -0.136

RRIRARPPRLPRPRPRPPYDPRP
shrunken log2 fold change: 0.0295

RRIRSRPPRLPRPRPRPGCCPRP
shrunken log2 fold change: 0.396

RRIRYRPPRLPRPRPRPGLIPRP
shrunken log2 fold change: -0.0546

RRIRRRPPRLPRPRPRPGTVPRP
shrunken log2 fold change: 0.0962

RRIRHRPPRLPRPRPRPTNLPRP
shrunken log2 fold change: -0.288

RRIRERPPRLPRPRPRPKDRPRP
shrunken log2 fold change: -0.094

RRIRDRPPRLPRPRPRPGWYPRP
shrunken log2 fold change: 0.178

RRIRRRPPRLPRPRPRPLNFPRP
shrunken log2 fold change: -0.115

RRIRTRPPRLPRPRPRPSHFPRP
shrunken log2 fold change: -0.315

RRIRFRPPRLPRPRPRPWLFPRP
shrunken log2 fold change: -0.0194

RRIRHRPPRLPRPRPRPLDRPRP
shrunken log2 fold change: -0.56

RRIRQRPPRLPRPRPRPVFLPRP
shrunken log2 fold change: -0.218

RRIRERPPRLPRPRPRPDWHPRP
shrunken log2 fold change: -0.12

RRIRARPPRLPRPRPRPHVYPRP
shrunken log2 fold change: -0.0492

RRIRHRPPRLPRPRPRPCHPPRP
shrunken log2 fold change: -0.01

RRIRGRPPRLPRPRPRPWCIPRP
shrunken log2 fold change: -0.153

RRIRTRPPRLPRPRPRPQLWPRP
shrunken log2 fold change: -0.13

RRIRCRPPRLPRPRPRPACLPRP
shrunken log2 fold change: -0.111

RRIRMRPPRLPRPRPRPDKLPRP
shrunken log2 fold change: 0.282

RRIRPRPPRLPRPRPRPILNPRP
shrunken log2 fold change: -0.339

RRIRVRPPRLPRPRPRPIFVPRP
shrunken log2 fold change: -0.0998

RRIRHRPPRLPRPRPRPDADPRP
shrunken log2 fold change: 0.0435

RRIRVRPPRLPRPRPRPKGQPRP
shrunken log2 fold change: 0.147

RRIRMRPPRLPRPRPRPNYRPRP
shrunken log2 fold change: -0.133

RRIRARPPRLPRPRPRPQIAPRP
shrunken log2 fold change: 0.499
